According to the DeepSol protein solubility set:

Assay: soluble on expression in E. coli; label from the status in PepcDB or PDB records

| Sequence | soluble on expression in E. coli |
| --- | --- |
| GSAPAKEPSVNTALVPQLSTISRALTPSPVMVLENIEPEIVYAGYDSSKPDTAENLLSTLNRLAGKQMIQVVKWAKVLPGFKNLPLEDQITLIQYSWMSLSSFALSWRSYKHTNSQFLYFAPDLVFNEEKMHQSAMYELCQGMHQISLQFVRLQLTFEEYTIMKVLLLLSTIPKDGLKSQAAFEEMRTNYIKELRKMVTKCPNNSGQSWQRFYQLTKLLDSMHDLVSDLLEFCFYTFRESHALKVEFPAMLVEIISDQLPKVESGNAKPLYFHRK | soluble |
| MSFAPMLLATINNSIGNKDKHVSLEYLIGLFMDKKTTNLSNTDKYIIGTIQTEALEQEIEWFSQDYHIPMENILHVLSINPYQ | not soluble |
| MFAPALAYPRPMPELPEVETTRRKIEPLLRGKTIERIVHDAPHRYRNTERAHGRQVRGLTRRGKYLLLHLAAADAAEDEPHDLELIVHLGMTGGFRLEEGPHTRVTFELGSGEKLYFNDPRRFGKVVAVAPGDYASMPTLAAMGPEPLSDDFTEAEFVALAARCGPVKPWLLSQKPVSGVGNIYADESLWHARLHPAQTRLNADEAGRLYRAIREVMAAAVDKGGSSLGNGVGNYRQHDGEGGGFQHSHHVYGRAGQPCDRCGTPIEKIVLGQRGTHFCPVCQPLRTDRSA | not soluble |
| MAKTIAYDEEARRGLERGLNALADAVKVTLGPKGRNVVLEKKWGAPTITNDGVSIAKEIELEDPYEKIGAELVKEVAKKTDDVAGDGTTTATVLAQALVREGLRNVAAGANPLGLKRGIEKAVEKVTETLLKGAKEVETKEQIAATAAISAGDQSIGDLIAEAMDKVGNEGVITVEESNTFGLQLELTEGMRFDKGYISGYFVTDPERQEAVLEDPYILLVSSKVSTVKDLLPLLEKVIGAGKPLLIIAEDVEGEALSTLVVNKIRGTFKSVAVKAPGFGDRRKAMLQDMAILTGGQVISEEVGLTLENADLSLLGKARKVVVTKDETTIVEGAGDTDAIAGRVAQIRQEIENSDSDYDREKLQERLAKLAGGVAVIKAGAATEVELKERKHRIEDAVRNAKAAVEEGIVAGGGVTLLQAAPTLDELKLEGDEATGANIVKVALEAPLKQIAFNSGLEPGVVAEKVRNLPAGHGLNAQTGVYEDLLAAGVADPVKVTRSALQNAASIAGLFLTTEAVVADKPEKEKASVPGGGDMGGMDF | soluble |
| MDYILGRYVKIARYGSGGLVGGGGKEQYVENLVLWENIIKTAYCFITPSSYTAALETANIPEKDFSNCFRFLKENFFIIPGEYNNSTENNRYSRNFLHYQSYGANPVLVQDKLKNAKVVILGCGGIGNHVSVILATSGIGEIILIDNDQIENTNLTRQVLFSEDDVGKNKTEVIKRELLKRNSEISVSEIALNINDYTDLHKVPEADIWVVSADHPFNLINWVNKYCVRANQPYINAGYVNDIAVFGPLYVPGKTGCYECQKVVADLYGSEKENIDHKIKLINSRFKPATFAPVNNVAAALCAADVIKFIGKYSEPLSLNKRIGIWSDEIKIHSQNMGRSPVCSVCGNRMLEHHHHHH | soluble |
| MSEQVYSGVDQDEDGGLTPLGRIVIDAWVFGILPESEMCTGWSMSQMQNLYEEVYAAWGPYAHLPSRLPPELQQRHSFFYSQRITVAKNNGWDTDLSDES | not soluble |
| PHSPLAEGRREVAKVLTMASEALTQVSTAMRTGDVDGIREALRKARGSQAAINAMIAAAKSGQEEVAVSPFLWSSKARVRSFVRILHPVDNAMRNTRVLARRAQVLIEDGDEVSEAQIQLIDDLVSVTSAVAAIYDRRGAASEAAEIPELVRTLQTMAARAGLSVAEGKVLSAQVVLAQTRSIIVDLLQVCGMSRASAVASLALTSESPAYPSEIRDDPNH | soluble |
| HITHKLLIPAWDGIVLEGLSVKERKTTNNTVVLALIGHFQTEHHYLNTSFHEFQELFGTELVLINHRNYSNRSNKFANSAEEIARDVLAFAKHFRQKNKKIVLYGMCGGAAHMILAA | not soluble |
| MDTQQLINAITPEAYQRLLYAVETGKWPEGTPLSQQQRDSCMQAVMLYQSKHNTQADHMSVGVGGEVVFKSKAELKKRFSEGEEDILRVNPNQEA | not soluble |
| MDVIPLSLGLETMGGLVEKVIPRNTTIPVARAQDFTTFKDGQTAMSIHVMQGERELVQDCRSLARFALRGIPALPAGGAHIRVTFQVDADGLLSVTAMEKSTGVEASIQVKPSYGLTDSEIASMIKDSMSYAEQDVKARMLAEQKVEAARVLESLHGALAADAALLSAAERQVIDDAAAHLSEVAQGDDVDAIEQAIKNVDKQTQDFAARRMDQSVRRALKGHSVDE | soluble |
| TAPSQVLKIRRPDDWHLHLRDGDMLKTVVPYTSEIYGRAIVMPNLAPPVTTVEAAVAYRQRILDAVPAGHDFTPLMTCYLTDSLDPNELERGFNEGVFTAAKLYPANAVTNSSHGVTSVDAIMPVLERMEKIGMPLLVHGEVTHADIDIFDREARFIESVMEPLRQRLTALKVVFEHITTKDAADYVRDGNERLAATITPQHLMFNRNHMLVGGVRPHLYCLPILKRNIHQQALRELVASGFNRVFLGTDSAPHARHRKESSCGCAGCFNAPTALGSYATVFEEMNALQHFEAFCSVNGPQFYGLPVNDTFIELVREEQQVAESIALTDDTLVPFLAGETVRWSVKQ | soluble |
| MGSDKIHHHHHHMDKEEQYLLFALSTPMEVLYIGNEPSHTSPAMYTGIPAVDLSDSWGIDNREDLIQTIYRMTDDGHAADLAPFYIRWFTLSPRQWREFTAQFGEQGQIYARFVAETALCCGRGGIKAWDYVRMGFLCRMGVLNQWLTEEESLWLQSRIYARAYYFYDGWTQYFAAYSLGRLYWQAKGDTIQAYFAHLKYDASGARMFNELASTTESYYAQLPWRPLNEQPTCPETLKGVSDL | not soluble |
| MKKRAACLCFRSEREDEVLLVSSSRYPDRWIVPGGGMEPEEEPGGAAVREVYEEAGVKGKLGRLLGVFEQNQDPEHRTYVYVLTVTELLEDWEDSVSIGRKREWFKVEDAIKVLQCHKPVHAEYLEKLKAHHHHHH | soluble |
| MGGLVSRCEAFSSSAEQKLSQGRNTSMDEKTTQTKPSRRPWFWKRIERTELPNPGSYEDINQEASAVLRPNLFDGFRFDFNYPLSAMFSMGHSIEMGSLQKPPGYAFSANYLSNHLVMLSRVDLSGHVNGRVFINHSPFLTSKIVAETSSQPNESKATWDLDYRGSDFCGQLKFGNMGIVALSYLQSVTPNLSLGGEGFYQGATGFSAITAAGRYVTHDGVATCTIASFGPLVASYCHRVNPRVTLATEFFWDLRSRDSLVTIGYKFDLRQATVTGQIDTNGRVAALLEEKINPGLSFLLSGEIDHSRQEYKFGFGVTIGQ | soluble |
| MSLEFAMWAYPWDLLDEGPSEVERRLRDIGIDELNLATNYHTVQAFTPHSPERRTLFARASSYFEPGPEYGDLEPVPYEGMNGDWVADAATGLSDLTLNSWTVGCHNSRLGMANPEYTLESAHGDDLVFGLCPSQPAVQTYLSALVSDLSSRDEFARIELETFDYFYGTGFGWHHQKIHARLGVLGEFLLGLCFCPHCRKNAKAAGVDAERVRSTVADTIDDIVAGDVSHEHPPEEWLADHSTVAAYVDVRERTLASLYATLADAAGTTSLGYYVGAPEPGREWVVGADLQALSNHVDYYCLPAYESSSDAVIGAYNAVETVIDDVPLHIGLLPGHPAIDDEATVVDIVETLDSKGVPRLSFYNYGLLPEQSLEWVETAIETVSEGHHHHHH | soluble |
| MGLYDKYARLAGERLQFSDNGLTPFGTCIDEVYSATEGRIGNKKVILAGTNNYLGLTFNHDAISEGQAALAAQGTGTTGSRMANGSYAPHLALEKEIAEFFNRPTAIVFQPVIPLI | not soluble |
| MGSDKIHHHHHHMNIQKVTFRNADMAWDMAALILLPEGFDESKRYPTMVSVHPFGSCKEQTSSAVYGKALAELGYVVIAFDASFQGESGGSPRYVEDPSQRVEDISRVIDYAVSLPYVDEDRIGGLGICGGGAYIFSSALTEKRLKAVVGITPVNLGRLFREGFSQYNPIGALEAMATQRTAEARGAELQVNELLPPSPEFAKQNGMTERDLFEATDYYKTPRGQAEGGATRMLFSHAQKTLSWDAFAFVETLMTQPMMAVVGQKLGAFGAYRDGHEVYGRSIVSKDRQLVELQDWSHYDLYDHPQAVSLAMEKIGPFLSQHL | not soluble |
| MAHHHHHHMGCKNSKAREPPADTVTAAQANIATNKNSSTAPTLSPAQHHAKQTGETKRNNAASPASRGNNGEASENESRSEQPKKALGPGGNDVKQAASNSPSKQELDDEGNPLLLPNGDWVRTEGTPFYYSVEENLYFHPPSCQFYDPTNGMWYDPEKDEWYYDDENGAQE | soluble |
| MAREELRRHLVGLIERSRVVIFSKSYCPHSTRVKELFSSLGVECNVLELDQVDDGARVQEVLSEITNQKTVPNIFVNKVHVGGCDQTFQAYQSGLLQKLLQEDLAYDAENLYFQ | soluble |
| MSLGSGHIRAAEALQKFVVQKYPKSKTLIVDTFKYINPLIHTVVVDGYLNIVKYVPEIYGGLYRMSEHIKNIDRMSRGFSNLLTPKIHRLIQSFKPSIIVCTHPFPLQMIAHLKKHYNLDVPSIAIVTDFVNHPFWFQNNIEAYIVAHDYIKRDMIECGISEDRIFTYGLPVAPEFLKLEHHHHHH | not soluble |
| MGSDKIHHHHHHMELRHLRYFAATAEELNFTRAANRLHISQPAVSRLIKELECELGAQLFTRERFGLRLTAAGEKFLFYARRVLQDCEEGIRAVRENGLNHQKLTIGFISTAMESFLSDALVRLSQERPDIDVTVNEMSPGDQIAALRYRQIDLGFIGNPHDGAGDEFELYVLREVPLVAVLPVRHRLAGRSEICIGELEGDTFIGYLEDKFPGRNRVISTACARAGFRPKFELKAGSLIEVLGMIGTGKGVCLMPSDVAGLPHPNVAFIPLRDPLDPVRLAAAWLPGNTNPALHQLIAILAADCSSDTGRTSR | not soluble |
| MHSRSVKFPSSKGHQIAGTIDFPDGTPRAFAMFAHCFTGSRFTPGAARVSKELAERGIACLRFDFPGLGQSEGIFSETSFSENVADIKAAADWLGQHYSAPQLLIGHSLGGAASLKAATTLKCLRGVATIGAPFDPAHAVLHFADRIGEVDENGAVTLTLGGRDITISREFLEDLADTNPEAYLPRLRKPLLILHSPIDQTVGVDNAQLIFRTTRYPKSLVALDKVDHLLTKQGSAQQAARIINTWFEQHIVAENEDPNADTLPEGVAVAQSIPAGKFADIVHTGTHSFTTDREKALGGKNLGVSPTSLLISALAAATSQEIRLAAKESRIHSLEDVNVTISKTVGDGERVHLRRNISLVGDLTDDERHELLLAARNSDIEKMLQGNVTINDQDV | not soluble |
| MSLGEVAPTLAAYDLQGEAVALEQWEGKLVYLNFWSVNCGGCLAEMATLNQLSQEYQDQAVVVAINTDPEQVEIAPVLAQHNINYPVIRDQLGITQERYQVIGTPTSFLIDRNGKVIEWHQGVRNEQELTALFKQKVSEKEGHHHHHH | not soluble |
| MGSDKIHHHHHHMPKRRLPSLNALRAFESAARNQSMTRAAEELCVTHSAISRHVAKLEDYLNAKLFERGHQQVVLTKRGAAYASRLQVLFDQIQDVTAEYFYARPDNASLRIGVLSTFAMRFLIPRLARFKKLYPEITLQVESAHEHVSPRDEEVDVAIWFGNGDWPGLVSEHLFHEELVPVGSPTLLAGHELGNPDDLESFLLLHAAARHDDWQRWLSATGATRVDGYKGLKLEYSGLAYQGAVDGLGLAMAQTLFVQEDLANRRLVAALPQRVKTGRSYYLVHNEMKSEQPVILRFSEWLKDEVRKTIEEIDRTQAEHIEVV | not soluble |
